Earlier results on two substances are cited in publication PMC8859281.

pKi: −log10 of the molar value.

Series [1] has as its target prokineticin receptor 2 (Homo sapiens) (UniProt Q8NFJ6).
Series [2] deals with prokineticin receptor 1 (Homo sapiens) (UniProt Q8TCW9).
The target of a further series is κ-opioid receptor (UniProt P41145).
Sequence of κ-opioid receptor (P41145 whole entry): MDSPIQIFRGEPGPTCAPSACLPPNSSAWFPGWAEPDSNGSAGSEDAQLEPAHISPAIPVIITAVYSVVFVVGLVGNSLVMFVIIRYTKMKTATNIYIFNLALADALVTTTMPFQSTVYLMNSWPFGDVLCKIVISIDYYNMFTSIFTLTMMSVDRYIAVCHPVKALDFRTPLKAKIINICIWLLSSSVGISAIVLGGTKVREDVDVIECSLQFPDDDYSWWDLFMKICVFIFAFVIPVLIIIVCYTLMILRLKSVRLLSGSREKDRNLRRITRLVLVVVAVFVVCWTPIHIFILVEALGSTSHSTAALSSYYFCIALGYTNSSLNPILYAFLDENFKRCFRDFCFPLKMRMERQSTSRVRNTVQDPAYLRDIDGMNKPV

Sequence of MIT1 (P25687 whole entry): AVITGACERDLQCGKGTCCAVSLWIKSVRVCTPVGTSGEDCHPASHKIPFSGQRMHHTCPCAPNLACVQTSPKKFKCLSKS
Sequence of prokineticin receptor 1 (Homo sapiens) (Q8TCW9 whole entry): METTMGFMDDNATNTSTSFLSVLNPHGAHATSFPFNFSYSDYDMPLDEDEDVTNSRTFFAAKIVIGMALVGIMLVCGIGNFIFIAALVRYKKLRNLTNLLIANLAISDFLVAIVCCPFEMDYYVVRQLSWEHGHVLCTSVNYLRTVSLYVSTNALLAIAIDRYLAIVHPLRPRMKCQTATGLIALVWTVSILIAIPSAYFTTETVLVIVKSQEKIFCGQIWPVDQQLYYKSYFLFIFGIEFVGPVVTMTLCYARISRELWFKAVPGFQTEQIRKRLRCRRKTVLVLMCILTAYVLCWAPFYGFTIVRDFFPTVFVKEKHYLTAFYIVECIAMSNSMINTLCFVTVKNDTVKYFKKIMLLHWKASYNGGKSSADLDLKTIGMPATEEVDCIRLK
Sequence of prokineticin receptor 2 (Homo sapiens) (Q8NFJ6 whole entry): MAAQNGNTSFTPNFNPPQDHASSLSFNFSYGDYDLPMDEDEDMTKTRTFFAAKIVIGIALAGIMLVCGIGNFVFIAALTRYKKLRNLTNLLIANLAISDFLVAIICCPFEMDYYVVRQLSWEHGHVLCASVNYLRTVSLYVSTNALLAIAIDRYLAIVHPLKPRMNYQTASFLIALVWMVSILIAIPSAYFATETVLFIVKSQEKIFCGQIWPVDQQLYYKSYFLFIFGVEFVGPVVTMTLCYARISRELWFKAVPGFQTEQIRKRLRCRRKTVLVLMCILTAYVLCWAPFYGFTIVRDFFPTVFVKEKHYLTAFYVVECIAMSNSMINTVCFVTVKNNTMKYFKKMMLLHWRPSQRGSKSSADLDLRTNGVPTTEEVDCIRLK

Regarding MIT1 (from UniProt P25687), the negative logarithm of the Ki (pKi) (usually −log10 of the Ki, conventionally taken in molar units) was 9.17 in series [1] and 8.39 in series [2].
With dynorphin A 1-17 (from UniProt P01213), in the series with κ-opioid receptor, the pKi was 9.55.
